{
  "source": "paper PMC4119789",
  "biological_target": "H3K4AK9me2 peptide",
  "assay": "ITC",
  "data": [
    {"binder": "SAWADEE domain of atSHH1 (residues 125-258) (domain or fragment) ADLAFEAKSARDYAWYDVSSFLTYRVLRTGELEVRVRFSGFDNRHDEWVNVKTSVRERSIPVEPSECGRVNVGDLLLCFQEREDQALYCDGHVLNIKRGIHDHARCNCVFLVRYELDNTEESLGLERICRRPEE", "values": [
      {"measurement": "fold weaker affinity than for the H3K9me2 peptide", "value": 30, "unit": "fold"}
    ]}
  ]
}
